Measurements published in publication PMC11059233.

Target: HLA-B*35:01 expressed in C1R cells (C1R.B*35:01) (human | human (endogenous in C1R))

influenza B virus HA_(231-239) peptide was tested. Which IFN-γ+TNF+ CD8+ T cells (expanded with pool J) after restimulation with peptide-pulsed C1R.B*35:01; donors responding did it give?
The IFN-γ+TNF+ CD8+ T cells (expanded with pool J) after restimulation with peptide-pulsed C1R.B*35:01; donors responding was 3 of 6 donors.

With influenza B virus NS1_(260-268) peptide as the substance, how does the IFN-γ+TNF+ CD8+ T cells (expanded with pool J) after restimulation with peptide-pulsed C1R.B*35:01; donors responding read?
The IFN-γ+TNF+ CD8+ T cells (expanded with pool J) after restimulation with peptide-pulsed C1R.B*35:01; donors responding was 5 of 6 donors.

Target: HLA-B*07:02 expressed in C1R cells (C1R.B*07:02) (human | human (endogenous in C1R))

How did the IFN-γ+TNF+ CD8+ T cells (expanded with pool H) after restimulation with peptide-pulsed C1R.B*07:02; donors responding turn out when influenza B virus HA_(255-263) peptide was run?
Its IFN-γ+TNF+ CD8+ T cells (expanded with pool H) after restimulation with peptide-pulsed C1R.B*07:02; donors responding is 2 of 10 donors.

influenza B virus NP_(30-38) peptide was tested. Which IFN-γ+TNF+ CD8+ T cells (expanded with pool H) after restimulation with peptide-pulsed C1R.B*07:02; donors responding did it give?
The IFN-γ+TNF+ CD8+ T cells (expanded with pool H) after restimulation with peptide-pulsed C1R.B*07:02; donors responding was 7 of 10 donors.

influenza B virus NP_(233-244) peptide was tested. Which IFN-γ+TNF+ CD8+ T cells (expanded with pool H) after restimulation with peptide-pulsed C1R.B*07:02; donors responding did it give?
The IFN-γ+TNF+ CD8+ T cells (expanded with pool H) after restimulation with peptide-pulsed C1R.B*07:02; donors responding was 9 of 10 donors.

How did the IFN-γ+TNF+ CD8+ T cells (expanded with pool H) after restimulation with peptide-pulsed C1R.B*07:02; donors responding turn out when influenza B virus NS1_(196-206) peptide was run?
Its IFN-γ+TNF+ CD8+ T cells (expanded with pool H) after restimulation with peptide-pulsed C1R.B*07:02; donors responding is 6 of 10 donors.

Target: HLA-B*08:01 expressed in C1R cells (C1R.B*08:01) (human | human (endogenous in C1R))

Which IFN-γ+TNF+ CD8+ T cells (expanded with pool I) after restimulation with peptide-pulsed C1R.B*08:01; donors responding does the source give for influenza B virus NP_(30-38) peptide here?
Its IFN-γ+TNF+ CD8+ T cells (expanded with pool I) after restimulation with peptide-pulsed C1R.B*08:01; donors responding is 5 of 9 donors.

Which IFN-γ+TNF+ CD8+ T cells (expanded with pool I) after restimulation with peptide-pulsed C1R.B*08:01; donors responding does the source give for influenza B virus NP_(92-99) peptide here?
The IFN-γ+TNF+ CD8+ T cells (expanded with pool I) after restimulation with peptide-pulsed C1R.B*08:01; donors responding was 6 of 9 donors.

Which IFN-γ+TNF+ CD8+ T cells (expanded with pool I) after restimulation with peptide-pulsed C1R.B*08:01; donors responding does the source give for influenza B virus NP_(479-487) peptide here?
Its IFN-γ+TNF+ CD8+ T cells (expanded with pool I) after restimulation with peptide-pulsed C1R.B*08:01; donors responding is 4 of 9 donors.
